Consider one substance from publication PMC8882475.

As usually defined, the Kd is the constant that tells how readily two partners part at equilibrium. Higher therefore signals lower affinity.

In this assay the target is FcRn (UniProt P55899). The experiment in a line: BLI. For orientation: Biolayer interferometry detects binding as a change in optical thickness at a sensor tip.

For “SI–F019, huACE2 (18–615) - IgG1 Fc null (from UniProt Q9BYF1-1 18-615) (Fc fusion)”, the dissociation constant Kd is 37.6 nM.
